Here are results for one molecule from US20220089656A1 (published 2022).

The assay has as its target T1, human ASIP (agouti-signaling protein, RnD Systems) (human, UniProt P42127 23-132).
T1 construct: Coated at 2 ug/ml; also called ASIP protein
T1 sequence (looked up): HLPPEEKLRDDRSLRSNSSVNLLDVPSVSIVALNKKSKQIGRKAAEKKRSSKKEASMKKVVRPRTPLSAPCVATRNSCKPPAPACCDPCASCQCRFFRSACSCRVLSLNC
Put plainly: ELISA: Protein M-HRP on coated human ASIP without antibody.

B1: Protein M horseradish peroxidase (HRP) fusion protein (other)
chain: EQKLISEEDLAANQLTPTFYDNSCPNVSNIVRDTIVNELRSDPRIAASILRLHFHDCFVNGCDASILLDNTTSFRTEKDAFGNANSARGFPVIDRMKAAVESACPRTVSCADLLTIAAQQSVTLAGGPSWRVPLGRRDSLQAFLDLANANLPAPFFTLPQLKDSFRNVGLNRSSDLVALSGGHTFGKNQCRFIMDRLYNFSNTGLPDPTLNTTYLQTLRGLCPLNGNLSALVDFDLRTPTIFDNKYYVNLEEQKGLIQSDQELFSSPNATDTIPLVRSFANSTQTFFNAFVEAMDRMGNITPLTGTQGQIRLNCRVVNSNSGGGGSGGGGSGGGGSTNLVNQSGYALVASGRSGNLGFKLFSTQSPSAEVKLKSLSLNDGSYQSEIDLSGGANFREKFRNFANELSEAITNSPKGLDRPVPKTEISGLIKTGDNFITPSFKAGYYDHVASDGSLLSYYQSTEYFNNRVLMPILQTTNGTLMANNRGYDDVFRQVPSFSGWSNTKATTVSTSNNLTYDKWTYFAAKGSPLYDSYPNHFFEDVKTLAIDAKDISALKTTIDSEKPTYLIIRGLSGNGSQLNELQLPESVKKVSLYGDYTGVNVAKQIFANVVELEFYSTSKANSFGFNPLVLGSKTNVIYDLFASKPFTHIDLTQVTLQNSDNSAIDANKLKQAVGDIYNYRRFERQFQGYFAGGYIDKYLVKNVNTNKDSDDDLVYRSLKELNLHLEEAYREGDNTYYRVNENYYPGASIYENERASRDSEFQNEILKRAEQNGVTFDENIKRITASGKYSVQFQKLENDTDSSLERMTKAVEGLVTVIGEEKFETVDITGVSSDTNEVKSLAKELKTNALGVKLKL
notes: also called Protein M-HRP
Take B1: the binding result is “no binding”.
